Test results as given in the supplement of paper PMC9112550, “Optimization of the antimicrobial peptide Bac7 by deep mutational scanning” (BMC Biology, 2022).

Test system: Escherichia coli TOP10
Assay: shrunken log2 fold change of peptide-encoding DNA abundance (4.5 h post-induction vs induction); higher = less antimicrobial activity (less host growth inhibition)
Conditions: time post-induction: 4.5 h; library: site-saturation at positions 5, 18, 19, 20
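Further: peptides expressed intracellularly from a pBAD plasmid library in pooled LB shake-flask culture, induced with 0.3% L-arabinose, DNA abundance read by NGS, three biological replicates, DESeq2 with apeglm shrinkage.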

Sequence	shrunken log2 fold change
RRIRIRPPRLPRPRPRPLPHPRP	-0.0305
RRIRVRPPRLPRPRPRPCPSPRP	-0.0233
RRIRSRPPRLPRPRPRPKFFPRP	0.113
RRIRARPPRLPRPRPRPCYLPRP	-0.262
RRIRMRPPRLPRPRPRPCWVPRP	0.827
RRIRYRPPRLPRPRPRPHQQPRP	-0.0439
RRIRDRPPRLPRPRPRPMTTPRP	-0.0624
RRIRARPPRLPRPRPRPNPCPRP	0.0698
RRIRHRPPRLPRPRPRPQPHPRP	-0.0753
RRIRIRPPRLPRPRPRPNPSPRP	0.0641
RRIRLRPPRLPRPRPRPCNKPRP	-0.686
RRIRARPPRLPRPRPRPVDTPRP	0.186
RRIRGRPPRLPRPRPRPGHGPRP	0.323
RRIRWRPPRLPRPRPRPICWPRP	0.646
RRIRLRPPRLPRPRPRPVTRPRP	0.0329
RRIRGRPPRLPRPRPRPGDWPRP	1.34
RRIRRRPPRLPRPRPRPVKDPRP	-0.0534
RRIRARPPRLPRPRPRPMKEPRP	-0.101
RRIRNRPPRLPRPRPRPPQHPRP	0.149
RRIRGRPPRLPRPRPRPAMQPRP	1.05
RRIRERPPRLPRPRPRPHNGPRP	0.0109
RRIRQRPPRLPRPRPRPTYSPRP	0.0402
RRIRMRPPRLPRPRPRPQLCPRP	0.237
RRIRARPPRLPRPRPRPHCMPRP	0.19
RRIRGRPPRLPRPRPRPWNDPRP	-0.222

Sequence	shrunken log2 fold change
RRIRTRPPRLPRPRPRPRVIPRP	-0.12
RRIRYRPPRLPRPRPRPWPSPRP	-0.00149
RRIRQRPPRLPRPRPRPYLMPRP	-1.39
RRIRFRPPRLPRPRPRPFMKPRP	1.71
RRIRHRPPRLPRPRPRPHYPPRP	-0.208
RRIRLRPPRLPRPRPRPQRKPRP	0.198
RRIRNRPPRLPRPRPRPLNGPRP	-0.0206
RRIRQRPPRLPRPRPRPAVTPRP	0.167
RRIRTRPPRLPRPRPRPRHYPRP	-0.162
RRIRFRPPRLPRPRPRPRGWPRP	0.9
RRIRVRPPRLPRPRPRPEQGPRP	0.0379
RRIRRRPPRLPRPRPRPEQDPRP	0.727
RRIRSRPPRLPRPRPRPKQPPRP	0.0683
RRIRDRPPRLPRPRPRPDVAPRP	0.0356
RRIRKRPPRLPRPRPRPDVSPRP	-0.382
RRIRHRPPRLPRPRPRPYDQPRP	-0.291
RRIRARPPRLPRPRPRPTIGPRP	0.176
RRIRARPPRLPRPRPRPWYTPRP	-0.514
RRIRCRPPRLPRPRPRPKVLPRP	0.0115
RRIRFRPPRLPRPRPRPLCHPRP	-0.271
RRIRKRPPRLPRPRPRPQIFPRP	-0.0259
RRIRVRPPRLPRPRPRPLKSPRP	-0.137
RRIRIRPPRLPRPRPRPLLDPRP	-0.444
RRIRIRPPRLPRPRPRPWTNPRP	-0.00152
RRIRERPPRLPRPRPRPCWCPRP	-0.0114

Sequence	shrunken log2 fold change
RRIRIRPPRLPRPRPRPVYYPRP	-1.62
RRIRLRPPRLPRPRPRPQMMPRP	-0.371
RRIRLRPPRLPRPRPRPMYKPRP	-0.44
RRIRHRPPRLPRPRPRPFFTPRP	-0.231
RRIRVRPPRLPRPRPRPSHHPRP	-0.448
RRIRNRPPRLPRPRPRPGDCPRP	0.404
RRIRMRPPRLPRPRPRPWAEPRP	0.628
RRIRTRPPRLPRPRPRPYDMPRP	0.0197
RRIRNRPPRLPRPRPRPTEMPRP	-0.283
RRIRARPPRLPRPRPRPPKLPRP	0.683
RRIRARPPRLPRPRPRPESKPRP	0.015
RRIRSRPPRLPRPRPRPMRRPRP	0.732
RRIRWRPPRLPRPRPRPVSLPRP	0.15
RRIRQRPPRLPRPRPRPHNWPRP	-0.311
RRIRDRPPRLPRPRPRPWTLPRP	-0.424
RRIRFRPPRLPRPRPRPTQGPRP	0.215
RRIRRRPPRLPRPRPRPSNRPRP	-0.0253
RRIRTRPPRLPRPRPRPQVNPRP	-0.587
RRIRCRPPRLPRPRPRPLQTPRP	0.443
RRIRLRPPRLPRPRPRPCRKPRP	-0.19
RRIRQRPPRLPRPRPRPSQPPRP	-0.267
RRIRTRPPRLPRPRPRPPLMPRP	-0.0314
RRIRLRPPRLPRPRPRPQNRPRP	-0.231
RRIRRRPPRLPRPRPRPMIQPRP	0.107
RRIRKRPPRLPRPRPRPVPQPRP	0.313

Sequence	shrunken log2 fold change
RRIRQRPPRLPRPRPRPFMMPRP	-0.25
RRIRVRPPRLPRPRPRPIHLPRP	-0.197
RRIRKRPPRLPRPRPRPSWKPRP	0.0521
RRIRTRPPRLPRPRPRPHMLPRP	-0.389
RRIRNRPPRLPRPRPRPMKEPRP	0.0626
RRIRQRPPRLPRPRPRPPFQPRP	0.0422
RRIRVRPPRLPRPRPRPGDEPRP	0.122
RRIRTRPPRLPRPRPRPTGQPRP	0.031
RRIRPRPPRLPRPRPRPVYHPRP	-0.388
RRIRGRPPRLPRPRPRPWVTPRP	0.0039
RRIRFRPPRLPRPRPRPVHEPRP	-0.0618
RRIRFRPPRLPRPRPRPAAFPRP	-0.0126
RRIRGRPPRLPRPRPRPLDIPRP	-0.0476
RRIRYRPPRLPRPRPRPELDPRP	-0.165
RRIRLRPPRLPRPRPRPDHDPRP	-0.0947
RRIRFRPPRLPRPRPRPWRNPRP	-0.133
RRIRVRPPRLPRPRPRPMIVPRP	0.109
RRIRFRPPRLPRPRPRPFCNPRP	-0.196
RRIRGRPPRLPRPRPRPQERPRP	0.595
RRIRNRPPRLPRPRPRPYCVPRP	-0.172
RRIRHRPPRLPRPRPRPLVFPRP	-0.29
RRIRFRPPRLPRPRPRPMLAPRP	0.0819
RRIRWRPPRLPRPRPRPWHNPRP	-0.203
RRIRVRPPRLPRPRPRPPQGPRP	0.203
RRIRNRPPRLPRPRPRPHKDPRP	-0.737

Sequence	shrunken log2 fold change
RRIRTRPPRLPRPRPRPDETPRP	0.0482
RRIRPRPPRLPRPRPRPITIPRP	-0.197
RRIRLRPPRLPRPRPRPEILPRP	0.0325
RRIRQRPPRLPRPRPRPIGNPRP	0.0843
RRIRTRPPRLPRPRPRPGNNPRP	-0.14
RRIRTRPPRLPRPRPRPTPIPRP	0.139
RRIRVRPPRLPRPRPRPCRAPRP	0.0373
RRIRNRPPRLPRPRPRPGVTPRP	0.0223
RRIRDRPPRLPRPRPRPSETPRP	-0.0751
RRIRRRPPRLPRPRPRPEDEPRP	-0.0165
RRIRVRPPRLPRPRPRPDPEPRP	-0.0984
RRIRLRPPRLPRPRPRPSSSPRP	0.172
RRIRFRPPRLPRPRPRPRQAPRP	0.128
RRIRIRPPRLPRPRPRPADEPRP	-0.08
RRIRQRPPRLPRPRPRPEHQPRP	-0.0955
RRIRFRPPRLPRPRPRPCWHPRP	-0.259
RRIRARPPRLPRPRPRPPDGPRP	1.3
RRIRFRPPRLPRPRPRPINPPRP	-1.08
RRIRWRPPRLPRPRPRPTSGPRP	0.593
RRIRFRPPRLPRPRPRPQRAPRP	0.462
RRIRLRPPRLPRPRPRPKDMPRP	-0.0444
RRIRSRPPRLPRPRPRPRVWPRP	0.536
RRIRRRPPRLPRPRPRPSRSPRP	0.139
RRIRPRPPRLPRPRPRPCQQPRP	-0.119
RRIRDRPPRLPRPRPRPICSPRP	0.0206
